Series [1] deals with T1, MC1 WT (Methanosarcina thermophila CHTI55, UniProt P12770 1-93).
T1 sequence: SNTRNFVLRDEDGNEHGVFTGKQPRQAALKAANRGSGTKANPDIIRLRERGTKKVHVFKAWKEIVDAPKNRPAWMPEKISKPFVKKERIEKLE
As to the kind of experiment: NMR PRE; Mn2+ (EDTA-chelated probe); protein:DNA 1:1.2; EMSA: 10 mM Tris-HCl pH 7.5, 150 mM NaCl, 1 mM EDTA, 15 ug/ml BSA, 8% glycerol, 15 min at 20 C, 0.1 nM DNA, TBE gel; NMR PRE: 10 mM phosphate pH 6, 100 mM NaCl, 10% D2O. To be noted: protein: recombinant; label: paramagnetic dT-EDTA-Mn2+; blunt.

Series [2] deals with T1, MC1 WT. As to the kind of experiment: NMR chemical shift perturbation; EMSA: 10 mM Tris-HCl pH 7.5, 150 mM NaCl, 1 mM EDTA, 15 ug/ml BSA, 8% glycerol, 15 min at 20 C, 0.1 nM DNA, TBE gel; NMR PRE: 10 mM phosphate pH 6, 100 mM NaCl, 10% D2O. To be noted: protein: recombinant; blunt. Background: A gel shift assay detects complexes by their altered migration in electrophoresis.

In series [3] the target is T1, MC1 WT. As to the kind of experiment: EMSA; EMSA: 10 mM Tris-HCl pH 7.5, 150 mM NaCl, 1 mM EDTA, 15 ug/ml BSA, 8% glycerol, 15 min at 20 C, 0.1 nM DNA, TBE gel; NMR PRE: 10 mM phosphate pH 6, 100 mM NaCl, 10% D2O. To be noted: protein: recombinant; label: 5'-32P on one strand; blunt.

B1: DNA1* (dsDNA)
DNA 1: AAAAACACACACCCA
DNA 2: TGGGTGTGTGTTTTT
modifications: dT-EDTA (Mn2+) at the 5'-terminal T16 of strand 2
In the case of B1, the binding result with MC1 WT [1] was “binds”.

B2: 15 bp NMR duplex (dsDNA)
DNA 1: AAAAACACACACCCA
DNA 2: TGGGTGTGTGTTTTT
Turning to B2, in the series with MC1 WT [2], the binding result is “binds”.

B3: 26 bp EMSA duplex (dsDNA)
DNA 1: GCCTCAAAAACACACACCCCCGACAG
DNA 2: CTGTCGGGGGTGTGTGTTTTTGAGGC
As for B3, the Kd with MC1 WT [3] came to 1.2 ± 0.1 nM.

What is called Kd is a measure of binding affinity in units of concentration.

These data come from article PMC3928310, “Model of a DNA-Protein Complex of the Architectural Monomeric Protein MC1 from Euryarchaea”.
